This test has as its target PfCSP junctional peptide 21 (Plasmodium falciparum) (UniProt Q7K740). As to the kind of experiment: BLI. (BLI is a label-free optical method that tracks binding on a fibre tip over time.)

For CIS43 mAb, the Kd (usually the free concentration of one partner at which half of the binding sites on the other are occupied at equilibrium, for simple one-to-one binding) amounted to 21 nM.

Source of the values: article doi:10.1101/2025.09.30.679617.
